We go through 1 molecule from PMC7554088.

The target of the test is T1, Rev7, accessory subunit of S. cerevisiae DNA polymerase ζ (S. cerevisiae), P38927.
T1 chain: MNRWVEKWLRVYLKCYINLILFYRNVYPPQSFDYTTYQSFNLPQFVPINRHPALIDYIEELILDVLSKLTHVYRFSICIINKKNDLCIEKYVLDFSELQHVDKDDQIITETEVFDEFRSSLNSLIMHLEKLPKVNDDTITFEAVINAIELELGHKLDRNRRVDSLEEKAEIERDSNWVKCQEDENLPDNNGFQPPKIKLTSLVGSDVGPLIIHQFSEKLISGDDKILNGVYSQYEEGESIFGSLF
Put plainly: cryo-EM structure. Particulars: remark: other sources report otherwise.

B1: Rev7, accessory subunit of S. cerevisiae DNA polymerase ζ, P38927 1-245 (natural protein)
chain: MNRWVEKWLRVYLKCYINLILFYRNVYPPQSFDYTTYQSFNLPQFVPINRHPALIDYIEELILDVLSKLTHVYRFSICIINKKNDLCIEKYVLDFSELQHVDKDDQIITETEVFDEFRSSLNSLIMHLEKLPKVNDDTITFEAVINAIELELGHKLDRNRRVDSLEEKAEIERDSNWVKCQEDENLPDNNGFQPPKIKLTSLVGSDVGPLIIHQFSEKLISGDDKILNGVYSQYEEGESIFGSLF
B1: the stoichiometry N – broadly, a count of units in the complex or per binding partner – amounted to 2.
